Experimental data reported in PMC4259888.

Tests used:
[1] = target: HIV-1 CA hexamers (A14C/E45C/W184A/M185A) (HIV-1); experiment: SEC; size-exclusion chromatographic profiles of purified individual CA hexamers, pentamers and monomers
[2] = target: HIV-1 CA pentamers (A21C/E22C/W184A/M185A) (HIV-1); experiment: as above

| Substance | stoichiometry N [1] | stoichiometry N [2] |
| --- | --- | --- |
| HIV-1 CA hexamers (A14C/E45C/W184A/M185A) (natural protein) | 6 |  |
| HIV-1 CA pentamers (A21C/E22C/W184A/M185A) (natural protein) |  | 5 |
